Laboratory results as given in patent KR20240052776A (dated 2024).

Legend:
Assay in all cases: flow cytometry, cell-based binding assay: yeast-displayed scFv with biotinylated MOG protein, streptavidin detection, anti-myc co-staining
[1] = molecular target: T1, biotinylated mouse MOG-His (Uniprot Q61885), RND Systems (mouse, UniProt Q61885 29-156, limits assumed, biotinylated (site not stated))
T1 construct: A bought protein (RND Systems); also called 마우스 MOG-His; not shown: His tag
T1 sequence (looked up): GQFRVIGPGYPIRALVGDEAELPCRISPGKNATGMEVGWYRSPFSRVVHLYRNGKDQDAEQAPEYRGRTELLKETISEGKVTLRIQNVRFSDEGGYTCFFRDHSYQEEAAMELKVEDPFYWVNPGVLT

[2] = molecular target: T2, biotinylated cynomolgus monkey MOG-FC protein (Q9BGS7), expressed in mammalian cells (cynomolgus monkey, UniProt Q9BGS7 30-154, limits assumed, biotinylated (site not stated))
T2 construct: also called cynomolgus MOG-Fc; 사이노몰거스 원숭이 MOG-FC; not shown: Fc part
T2 sequence (looked up): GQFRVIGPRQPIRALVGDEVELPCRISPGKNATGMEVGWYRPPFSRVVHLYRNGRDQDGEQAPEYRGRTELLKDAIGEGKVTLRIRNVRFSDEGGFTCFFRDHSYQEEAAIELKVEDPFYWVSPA

[3] = molecular target: T3, biotinylated human MOG-His (Uniprot Q16653), RND Systems (human, UniProt Q16653 30-154, biotinylated (site not stated))
T3 construct: A bought protein (RND Systems); also called 인간 MOG-His; not shown: His tag
T3 sequence (looked up): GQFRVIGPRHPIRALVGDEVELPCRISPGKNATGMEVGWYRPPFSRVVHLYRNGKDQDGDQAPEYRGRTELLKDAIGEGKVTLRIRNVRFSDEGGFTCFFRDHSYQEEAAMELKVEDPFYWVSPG

Measured: binding result

B1: anti-MOG scFv of the invention, displayed on yeast cells (MOG-CAR 발현 효모 세포) (scFv, V domains shown)
VH: QVQLVQSGAEVKKPGSSVKVSCKASGGTFSSYAFSWVRQAPGQGLEWMGRIVPVVGTPNYAQKFQGRVTITADESTSTAYMELSSLRSEDTAVYYCARERLYAGYYFDHWGQGTLVTVSS
VL: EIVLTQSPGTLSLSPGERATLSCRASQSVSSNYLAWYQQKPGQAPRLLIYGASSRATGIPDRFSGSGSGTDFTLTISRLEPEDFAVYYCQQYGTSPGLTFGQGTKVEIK
notes: also called MOG-CAR expressing yeast cells
binds: all assays above
